B1: PRKX (parent)
chain: KLLVVDRTRRLGNMKNGANDVKHH
B2: SLC2A12 (parent)
chain: TRIMIGLTLVFFVQITGQPNILFY

Variants of: B1
Assay: protein stability index of a GFP-peptide fusion (GPS, HEK-293T) (PSI 1-6); higher = more stable
Details: c terminus: a fixed tail appended
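Note: lentivirally expressed fusions sorted by FACS into six bins by GFP to DsRed ratio, PSI derived from sequencing read proportions per bin multiplied by bin number.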

Protein stability index, by site and new letter:
K1: Y 2.29; C 1.85; G 3.38; T 3.45; H 2.98; D 3.82; E 2.94; V 1.82; P 3.63; L 1.86; I 1.78; F 1.44; Q 3.37; M 1.85; W 1.55; A 2.33; R 2.52; N 3.45; S 3.51
T8: G 2.55; H 2.97; K 2.88; Q 3.08; C 2.98; R 2.86; I 1.97; F 2.56; V 3; E 3.38; A 3.03; L 2.47; D 3.46; N 2.78; S 2.67; P 2.74; M 2.54
D6: W 1.69; C 2.01; E 2.94; R 2.14; M 1.97; V 2.26; S 2.81; T 2.52; H 2.82; N 2.95; K 2.55; F 3.18; G 2.29; I 2.87; A 2.19; Y 2.29; L 1.98; Q 2.03; P 2.94
V5: N 3.3; R 3.31; I 2.33; W 2.33; P 3.62; T 3.67; G 3.32; F 2.65; Y 2.61; E 4.08; C 3.72; H 3.41; M 2.95; Q 3.11; L 2.6; K 3.56; D 4.07; A 3.74; S 3.62
R7: H 3.03; N 3.25; E 3.7; Y 2.5; M 2.43; K 2.56; A 3.79; S 3.21; L 2.92; D 4.05; Q 3.97; W 2.5; V 2.81; C 2.6; I 2.13; T 3.18; G 3.22; P 3.62; F 1.83
V4: M 2.57; I 2.46; Q 3.19; G 3.32; R 2.86; T 3.4; A 3.31; D 3.77; K 2.7; L 3; N 3.6; F 2.61; Y 3.32; P 3.87; H 3.62; C 3.17; W 2.66; E 3.46; S 3.65
L2: K 3.99; C 3.57; H 3.68; I 2.99; W 2.87; P 4.29; T 3.61; E 5.03; V 3.52; M 3.5; Y 3.04; S 4.13; N 4.03; R 3.69; D 4.03; F 3.22; G 4.1; Q 4.39; A 3.84
L3: D 4.38; S 4.29; G 3.93; Q 3.68; E 4.33; K 3.55; W 3.29; Y 2.69; M 3.66; H 4; T 4.16; A 3.92; R 3.87; N 3.62; V 2.86; P 3.72; I 3.31; C 3.74; F 2.72

Variants of: B2
Assay: as above
Details: c terminus: a fixed tail appended

Protein stability index: each site, then its substitutions
F11: T 3.22; I 3.63; P 2.09; R 2.16; C 3.27; L 2.5; D 2.15; S 3.83; E 1.63
F12: H 3.17; W 2.48; I 2.79; E 2.77; N 3.88; Q 3.16; K 2.95
V13: P 3.01; S 2.7; T 3.18; E 2.15; A 3.24; I 3.48; D 2.46; Q 2.33; K 2.19
Q18: W 3.71; H 3.08; P 3.94; S 3.39; E 4.17; G 3.24; M 3.21
I3: P 2.49; C 2.21; T 1.84; L 2.85; K 2.94; S 3.14; M 3.1; H 2.87; Y 3.58
R2: C 1.74; I 2.93; S 2.95; D 3.39; Q 4; H 2.17; L 2.57; Y 2.27; K 2.82
G17: W 2.11; M 3.31; A 2.96; D 3.49; L 2.86; K 2.58; V 2; H 2.87
L9: M 2.58; I 3.09; C 2.63; A 3.04; Q 1.7
F23: H 2.96; P 3.99; I 3.73; S 2.97; G 3.83; Y 3.75; K 3.29; C 2.54; L 3.52; E 3.67; T 2.38; D 2.29; A 3.26
Q14: G 3.68; Y 3.3; F 2.86; T 3.67; I 2.88; V 3.44; A 3.31
I5: A 2.6; E 3.74; T 2.83; Q 3.43; R 2.21; V 2.69
N20: S 2.15; F 2.45; Y 2.54; V 2.81; H 3.83; M 3.84; P 3.22; T 2.22; A 3.57; G 3.69
M4: S 3.75; Q 2.88; N 3.52; F 2.29; H 2.79; V 4.05; D 3.33; W 3.96; A 3.65; G 2.99
G6: R 2.75; K 2.19; H 2.34; L 2.22; T 3.1; E 3.67; A 1.78; M 2.46; D 2.73; Y 2.48
L7: C 2.22; S 3.54; N 2.78; I 2.63; A 3.65; F 2.41; Q 1.72
P19: H 3.72; Y 2.23; F 3.16; G 2.96; R 3.63
T1: S 3.37; Y 5.08; A 2.48; P 2.26; G 3.81; I 3.72
Y24: A 3.48; H 2.29
L22: I 1.48; Q 1.83; M 2.97; S 3.01; D 3.15; C 3.96
I21: M 1.89; F 3.31; G 4.22; T 3.91; L 2.73; A 2.81; D 3.69; H 2.49; W 3.64; N 2.52; P 3.17; E 3.88
I15: R 2.93; H 2; C 3.47; Q 3.39; S 2.98; P 3.74; G 1.73
T8: H 4.12; Y 2.64; I 2.72; N 3.93; F 2.26; C 3.82
V10: A 3.99; L 2.4; W 2.58; F 3.06; Y 2.56; C 2.69; H 3.39
T16: Q 3.11; Y 3.48; I 4.14; S 3.65; L 1.04; P 3.4; N 4.04

From the supplement of paper PMC10567573
